From paper PMC8985225

Columns and labels:
[1] = biological target: Ca^2+/CaM-dependent kinase II α (CaMKIIα) holoenzyme (rodent) (UniProt P11275)
[2] = biological target: Ca^2+/CaM-dependent kinase II β (CaMKIIβ) holoenzyme (rodent) (UniProt P08413)
Chain of UniProt P08413 (P08413 whole entry): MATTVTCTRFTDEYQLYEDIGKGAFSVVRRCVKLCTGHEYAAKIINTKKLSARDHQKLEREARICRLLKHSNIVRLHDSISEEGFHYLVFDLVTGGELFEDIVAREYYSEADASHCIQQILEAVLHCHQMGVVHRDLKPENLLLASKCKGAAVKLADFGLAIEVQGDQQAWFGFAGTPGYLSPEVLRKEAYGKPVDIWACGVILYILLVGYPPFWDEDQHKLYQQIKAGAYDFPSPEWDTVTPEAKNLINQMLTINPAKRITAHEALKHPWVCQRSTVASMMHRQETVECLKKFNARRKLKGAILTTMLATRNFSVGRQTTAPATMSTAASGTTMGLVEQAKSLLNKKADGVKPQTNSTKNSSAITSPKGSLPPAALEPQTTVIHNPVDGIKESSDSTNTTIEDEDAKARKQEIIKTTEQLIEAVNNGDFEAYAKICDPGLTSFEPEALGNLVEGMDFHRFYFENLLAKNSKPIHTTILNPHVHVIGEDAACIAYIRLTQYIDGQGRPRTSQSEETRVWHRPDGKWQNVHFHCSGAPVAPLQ

Chain of UniProt P11275 (P11275 whole entry): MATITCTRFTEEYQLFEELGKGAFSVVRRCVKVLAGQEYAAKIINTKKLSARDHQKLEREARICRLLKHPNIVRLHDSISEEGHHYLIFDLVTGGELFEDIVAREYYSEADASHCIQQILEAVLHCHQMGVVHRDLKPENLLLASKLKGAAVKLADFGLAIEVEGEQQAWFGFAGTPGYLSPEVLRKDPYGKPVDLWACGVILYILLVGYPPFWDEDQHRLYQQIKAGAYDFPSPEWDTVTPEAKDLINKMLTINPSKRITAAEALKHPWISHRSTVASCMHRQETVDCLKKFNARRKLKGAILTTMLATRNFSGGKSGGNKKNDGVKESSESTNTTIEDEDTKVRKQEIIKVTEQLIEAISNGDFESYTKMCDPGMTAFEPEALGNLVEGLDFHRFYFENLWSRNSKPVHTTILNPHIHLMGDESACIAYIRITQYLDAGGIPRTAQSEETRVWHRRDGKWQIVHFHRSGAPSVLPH

EC50 of CaM for in vitro CaMKII kinase activity (phosphorylation of syntide-2; 0.6 nM to 6 μM CaM) [1]: 30.1 nM
EC50 of CaM for in vitro CaMKII kinase activity (phosphorylation of syntide-2; 0.6 nM to 6 μM CaM) [2]: 14.6 nM
Substance: Calmodulin (from UniProt P0DP23 1-149) (natural protein)
